In publication doi:10.1101/2022.06.09.495453, “Molecular insights into human Shieldin complex assembly and recruitment to DSBs” (bioRxiv, 2022) one finds binding result and Kd data, which are given here for 3 molecules.

One assay has as its target T1, MBP-REV7^WT (human, UniProt Q9UI95 1-211).
T1 construct: REV7 (MAD2L2), human; 211 residues printed; wild type; source: E. coli LOBSTR, purified; not shown: hexahistidine-MBP, N-terminal, kept
Briefly: pull-down; MBP pull-down of GST-SHLD3^1-83 with MBP-REV7^WT or MBP-REV7^core. The note with it: both partners purified.

The target of a further assay is T2, REV7^WT (human, UniProt Q9UI95 1-211).
T2 construct: REV7 (MAD2L2), human, HORMA domain protein; 211 residues printed; wild type; also called WT-REV7; MAD2L2; source: E. coli LOBSTR, purified (metal chelating column, tag cleavage, SEC)
T2 sequence (Q9UI95 whole entry, the tested form may be a part): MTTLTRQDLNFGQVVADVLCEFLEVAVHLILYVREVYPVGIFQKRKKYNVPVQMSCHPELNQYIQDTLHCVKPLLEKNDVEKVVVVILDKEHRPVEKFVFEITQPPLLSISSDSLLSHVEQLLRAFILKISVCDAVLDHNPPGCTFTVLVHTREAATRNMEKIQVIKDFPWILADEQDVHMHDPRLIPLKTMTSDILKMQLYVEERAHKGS
As to the kind of experiment: SPR; SHLD3^1-62 or REV3^1871-2014 immobilised on an SCR HC30M chip by EDC-NHS coupling; REV7^WT or REV7^R124A injected in two-fold dilutions; buffer B with 0.05% Tween 20; KD estimated from plateau values at the end of the dissociation phase. The note with it: both partners purified.

Assay [1] has as its target REV7^R124A (human, UniProt Q9UI95 1-211, R124A). Briefly: SPR.
Assay [2] has as its target T3, REV7^R124A (human, UniProt Q9UI95 1-211, R124A).
T3 construct: REV7 (MAD2L2), human; 211 residues printed; R124A; also called R124A-REV7; source: E. coli LOBSTR, purified (metal chelating column, tag cleavage, SEC)
As to the kind of experiment: SPR; SHLD3^1-62 or REV3^1871-2014 immobilised on an SCR HC30M chip by EDC-NHS coupling; REV7^WT or REV7^R124A injected in two-fold dilutions; buffer B with 0.05% Tween 20; KD estimated from plateau values at the end of the dissociation phase. The note with it: both partners purified.
T3 sequence (Q9UI95 whole entry R124A): as the sequence (Q9UI95 whole entry, the tested form may be a part) above, with R124A counted along it

T1 sequence (Q9UI95 whole entry): as the sequence (Q9UI95 whole entry, the tested form may be a part) above

B1: GST-SHLD3^1-83 (domain or fragment, human, UniProt Q6ZNX1 1-83, looked up)
chain: MTTEVILHYRPCESDPTQLPKIAEKAIQDFPTRPLSRFIPWFPYDGSKLPLRPKRSPPVISEEAAEDVKQYLTISEHDAKSHS
notes: SHLD3, human, residues 1-83; also called SHLD3^RBM; source: E. coli LOBSTR, purified; not shown: GST, N-terminal, kept
Consider B1, for which the binding result with MBP-REV7^WT was “binds”.

B2: REV3^1871-2014 (domain or fragment, human, UniProt O60673 1871-2014, looked up)
chain: TPRTANILKPLMSPPSREEIMATLLDHDLSETIYQEPFCSNPSDVPEKPREIGGRLLMVETRLANDLAEFEGDFSLEGLRLWKTAFSAMTQNPRPGSPLRSGQGVVNKGSSNSPKMVEDKKIVIMPCKCAPSRQLVQVWLQAKE
notes: REV3, human, residues 1871-2014 (holds RBM1 1875-1896 and RBM2 1991-2012); The general protocol cleaves the tag; source: E. coli LOBSTR, purified
With B2, the binding result with REV7^WT is “binds”.

B3: SHLD3^1-62 (domain or fragment, human, UniProt Q6ZNX1 1-62, looked up)
chain: MTTEVILHYRPCESDPTQLPKIAEKAIQDFPTRPLSRFIPWFPYDGSKLPLRPKRSPPVISE
notes: SHLD3, human, residues 1-62; The general protocol cleaves the tag; also called SHLD3^RBM; source: E. coli LOBSTR, purified
For the molecule B3, the results for the Kd with REV7^R124A [1] and with REV7^WT were approximately 67 nM and approximately 38 nM, respectively. For the same molecule, the binding result in the assay with REV7^R124A [2] is listed as “binds”.
